Tests used:
[1] = test system: casein; conditions: 12.5% native casein-zymogram gel, 0.1 μg of each mucunain
Method: Zymogram—The zymogram of native and recombinant mucunain was carried out using a 12.5% native casein-zymogram gel as recommended by the supplier (Biorad). The zymogram gel was run with 0.1 μg of each of the mucunains, renatured and developed for protease activity overnight.

[2] = test system: PAR4; assay: PAR activation by cytoplasmic calcium release, ratiometric Fura-2 imaging, PAR4 transfected HeLa cells; type: cell-based, human; conditions: Fura-2 340:380 ratiometric imaging
Method: PAR activation observed by cytoplasmic calcium release—The four human PAR cDNAs were obtained from commercial sources and cloned into the pcDNA3.1 (−) vector (Invitrogen). HeLa cells were transfected with 10 μg of vector cDNA using Lipofectamine 2000 (Invitrogen) and cultured for two days in 96-well glass bottom plates at 30,000 cells/well. Cells were loaded with Fura-2 as follows. The medium was aspirated and replaced with 100 μl of complete DMEM containing 2 μM Fura-2 (Invitrogen) and kept at room temperature in the dark for 1 hr. The medium was again aspirated and each well received 90 μl of HEPES buffered saline (20 mM HEPES, 115 mM NaCl, 5.4 mM KCl, 2 mM CaCl2, 0.8 mM MgCl2, 13.8 mM glucose, pH 7.4). Plates were observed using a Zeiss Axiovert 200M microscope equipped with a filter wheel for monitoring excitation at 340 and 380 nm. Axiovision software, version 4.6 was used to analyze ratiometric calcium imaging of the cells. Ten μl of protease was applied approximately 20 seconds after the start of excitation. Images were taken every 5 seconds, beginning at time zero, for 3 minutes. The software was used to analyze the 37 images taken during each 3-minute period.

[3] = test system: skin of volunteers; assay: Psychophysics: itch sensation after insertion of native or reconstituted cowhage spicules into skin; type: in vivo; conditions: human volunteers; autoclaved spicules soaked in the substance and dried
Method: Reconstitution of spicules—Native spicules were inactivated by autoclaving for 1 hour and reconstituted with native and recombinant mucunains in the presence or absence of cysteine protease inhibitor, E64. Typically, 50 mg of inactivated spicules were mixed with 0.4 ml of 28 μM mucunain in a 2 ml microfuge tube, vortexed, and dried in a Speed-vac for 2 hours at room temperature. These spicules were then considered as ‘reconstituted’ with the protease alone. Spicules prepared in a similar manner but with E64 added at twice the concentration of mucunain, are considered reconstituted with the protease and the inhibitor.
Psychophysics—These protocols were approved by the Yale University Human Investigation Committee. A row of 10 cowhage spicules were lightly pasted to the flattened end of a Weck-Cel surgical strip, spaced at 1 mm, and applied parallel to the surface of the skin at the mid-volar forearm. […] Every 30 sec, subjects rated the magnitude of each of three qualities of sensation: Itch, pricking/stinging, and burning using the Generalized Labeled Magnitude Scale (Bartoshuk et al. 2004) that employs appropriately placed intensity descriptors of “none”, “barely detectable”, “weak”, “moderate”, “strong”, “very strong” and, at the top of the scale, “the strongest sensation imaginable.” Voltages derived from each subject's movements of a computer mouse that controlled a cursor on a visual representation of this scale were converted to numbers between 0 and 100 and plotted for each quality at successive intervals of 30 s up to 20 min after the insertion of cowhage. […]
The sensory effects of mucunain was further analyzed. […] 50 mg of the inactivated, dried spicules were then soaked in 0.05 ml of the filtered extract containing 0.07 mg of cysteine protease (as determined by non-interfering protein assay) with or without 3.5 micrograms of E-64. […]

[4] = native mucunain 0.9 μM, recombinant mucunain 2.7 μM; room temperature 1 hr; absorbance at 405 nm
Method: Chromogenic substrate assay—Native and recombinant mucunain protease activity were measured in a buffer containing 50 mM sodium acetate (pH 5.5), 2.5 mM EDTA, 2.5 mM DTT, and 250 μg/ml Z-Phe-Arg-pNA as the chromogenic substrate. After adding protease, the reaction was incubated at room temperature for 1 hr. Generation of the yellow product, p-nitroaniline, was assayed by measuring the absorbance at 405 nm. Papain served as a control cysteine protease. E64, an irreversible inhibitor of cysteine proteases, was used at a concentration of 10 M. Experiments were performed in triplicate and the error bars represent standard deviation.

Molecule | protease activity in zymogram [1] | calcium influx in PAR4 transfected HeLa cells [2] | itch evoked by substance loaded into inactivated spicules [3] | cleavage of chromogenic substrate Z-FR-pNA [4]
recombinant mucunain: M. pruriens cysteine protease expressed in E. coli, refolded and activated (protein) DNLPESVDWRNESAVLPVKDQGNCGSCWAFSTIGAVEGINKIVTGDLISLSEQELVDCDTSYNQGCNGGLMDYAYEFIINNGGIDSEEDYPYRAVDGTCDQYRKNAKVVTIDSYEDVPANDELALKKAVANQPVSVAIEGGGREFQLYVSGVFTGRCGTALDHGVVAVGYGSVKGHDYWIVRNSWGASWGEEGYVRLERNLAKSRSGKCGIAIEPSYPIKNGANPPNPGPSPPSPVKPPNVCDNSYSCSDSATCCCIFEFQKYCMVWGCCPLEAATCCDDHYSCCPHEYPICNVRAGTCLKGKNNPFGVKALRRTPAKPHWAFGGKNKVNSA | Protease activity was found | induced calcium influx | did elicit itch | 
mucunain: cysteine protease, itch-inducing component of spicules from M. pruriens (cowhage) (protein) DNLPESVDWRNESAVLPVKDQGNCGSCWAFSTIGAVEGINKIVTGDLISLSEQELVDCDTSYNQGCNGGLMDYAYEFIINNGGIDSEEDYPYRAVDGTCDQYRKNAKVVTIDSYEDVPANDELALKKAVANQPVSVAIEGGGREFQLYVSGVFTGRCGTALDHGVVAVGYGSVKGHDYWIVRNSWGASWGEEGYVRLERNLAKSRSGKCGIAIEPSYPIKNGANPPNPGPSPPSPVKPPNVCDNSYSCSDSATCCCIFEFQKYCMVWGCCPLEAATCCDDHYSCCPHEYPICNVRAGTCLKGKNNPFGVKALRRTPAKPHWAFGGKNKVNSA |  |  | evoked itch and nociceptive sensations | cleaves
papain: crystallized papain from Sigma, control cysteine protease (protein) IPEYVDWRQKGAVTPVKNQGSCGSCWAFSAVVTIEGIIKIRTGNLNEYSEQELLDCDRRSYGCNGGYPWSALQLVAQYGIHYRNTYPYEGVQRYCRSREKGPYAAKTDGVRQVQPYNEGALLYSIANQPVSVVLEAAGKDFQLYRGGIFVGPCGNKVDHAVAAVGYGPNYILIKNSWGTGWGENGYIRIKRGTGNSYGVCGLYTSSFYPVKN |  | induced calcium influx | produced itch | 

— US20080213252A1, “METHODS OF TREATING ITCH” (priority 2007, published 2008)
